Biological target: SN (Staphylococcus nuclease scaffold protein) (Staphylococcus aureus, UniProt Q5HHM4)
Test: ELISA

B1: SmpB (protein)
chain: MSKKNSKNKAGSNTIALNRSARHEYFIEEKIEAGLSLQGWEVKSLRAGKANISEAYVIFRDGEAYLFGSSFLPLQAASSHVVCDPTRTRKLLLSRRELDKLESLIARQGYTVVPLALYWKQCWVKVEIGLVKGKKEHDKREDTKAREWDREKARIMKNKHRG
Q: How did the Kd turn out when B1 was run?
A: 1380 nM
